# Test results from US20210101998A1 (Pfizer, published 2021).
# Positions count from the first letter of the chain named.
# T1: murTFPI K1K2 (mouse)
# T1 construct: also called Mouse TFPI K1K2; mouse TFPI
# T1 chain: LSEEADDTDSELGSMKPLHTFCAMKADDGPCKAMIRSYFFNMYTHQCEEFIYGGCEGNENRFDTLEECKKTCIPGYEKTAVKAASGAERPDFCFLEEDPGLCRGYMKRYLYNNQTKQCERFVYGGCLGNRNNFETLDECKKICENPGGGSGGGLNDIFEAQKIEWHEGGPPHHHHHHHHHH
# T2: rabTFPI K1K2 (rabbit, limits assumed)
# T2 construct: also called Rabbit TFPI K1K2; rabbit TFPI
# T2 chain: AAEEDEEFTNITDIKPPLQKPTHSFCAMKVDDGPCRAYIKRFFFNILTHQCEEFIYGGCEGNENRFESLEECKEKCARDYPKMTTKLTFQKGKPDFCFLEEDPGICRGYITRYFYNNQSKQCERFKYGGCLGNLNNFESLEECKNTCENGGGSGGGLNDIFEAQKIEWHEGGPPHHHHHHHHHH
# B1: 4D8.b1 (antibody, mouse IgG1, kappa)
# light: DIVMTQSHKFMSTSVGDRVSITCKASQDVHTAVAWYQQKPGQSPRLLIYWASTRHTGVPDRFTGCGSGTDYTLTISSVQAEDLALYYCQQHYTTPYTFGGGTKLEMKADAAPTVSIFPPSSEQLTSGGASVVCFLNNFYPKDINVKWKIDGSERQNGVLNSWTDQDSKDSTYSMSSTLTLTKDEYERHNSYTCEATHKTSTSPIVKSFNRNEC
# heavy: EVLLQQSGPELVKPGASVKIPCKASGYTFTDYNLDWVKQSHGKSLEWIGDINPINGATLYNQKFKGKATLTVDQSSSTAYMELRSLTSEDTAVYYCSIYYGDYDAMDYWGQGASVTVSSAKTTPPSVYPLAPGSAAQTNSMVTLGCLVKGYFPEPVTVTWNSGSLSSGVHTFPAVLQSDLYTLSSSVTVPSSTWPSETVTCNVAHPASSTKVDKKIVPRDCGCKPCICTVPEVSSVFIFPPKPKDVLTITLTPKVTCVVVDISKDDPEVQFSWFVDDVEVHTAQTQPREEQFNSTFRSVSELPIMHQDWLNGKEFKCRVNSAAFPAPIEKTISKTKGRPKAPQVYTIPPPKEQMAKDKVSLTCMITDFFPEDITVEWQWNGQPAENYKNTQPIMDTDGSYFVYSKLNVQKSNWEAGNTFTCSVLHEGLHNHHTEKSLSHSPGK
# notes: Mouse monoclonal antibody purified from a hybridoma subclone; also called mouse 4d8.b1; TFPI 4D8
# B2: 4D8-Vk1.0 × VH1.0 (antibody, human IgG1, kappa, V domains shown)
# VH: EVQLVESGGGLVQPGGSLRLSCAASGYTFTDYNLDWVRQAPGKGLEWVADINPINGATLYNQKFKGRFTISRDNAKNSLYLQMNSLRAEDTAVYYCARYYGDYDAMDYWGQGTLVTVSS
# VL: DIQMTQSPSSLSASVGDRVTITCKASQDVHTAVAWYQQKPGKAPKLLIYWASTRHTGVPSRFSGSGSGTDFTLTISSLQPEDFATYYCQQHYTTPYTFGQGTKLEIKR
# notes: Humanized 4D8 variant
# B3: 4D8-Vk1.0 × VH1.2 (antibody, human IgG1, kappa, V domains shown)
# VH: B2 VH with A49G
# VL: B2 VL
# notes: Humanized 4D8 variant
# B4: 4D8-Vk1.1 × VH1.2 (antibody, human IgG1, kappa, V domains shown)
# VH: B2 VH with A49G
# VL: B2 VL with F71Y
# notes: Humanized 4D8 variant
# B5: 4D8-Vk1.0 × VH1.3 (antibody, human IgG1, kappa, V domains shown)
# VH: B2 VH with F68A
# VL: B2 VL
# notes: Humanized 4D8 variant
# B6: 4D8-Vk1.0 × VH1.1 (antibody, human IgG1, kappa, V domains shown)
# VH: B2 VH with A49G, F68A, R72V, N74Q, L79A
# VL: B2 VL
# notes: Humanized 4D8 variant
# B7: 4D8-Vk1.1 × VH1.3 (antibody, human IgG1, kappa, V domains shown)
# VH: B2 VH with F68A
# VL: B2 VL with F71Y
# notes: Humanized 4D8 variant
# B8: 4D8-Vk1.1 × VH1.1 (antibody, human IgG1, kappa, V domains shown)
# VH: B2 VH with A49G, F68A, R72V, N74Q, L79A
# VL: B2 VL with F71Y
# notes: Humanized 4D8 variant
# B9: 4D8-Vk1.0 × VH1.4 (antibody, human IgG1, kappa, V domains shown)
# VH: B2 VH with N74Q
# VL: B2 VL
# notes: Humanized 4D8 variant
# B10: TFPI-26 (antibody, human IgG1, lambda, V domains shown)
# VH: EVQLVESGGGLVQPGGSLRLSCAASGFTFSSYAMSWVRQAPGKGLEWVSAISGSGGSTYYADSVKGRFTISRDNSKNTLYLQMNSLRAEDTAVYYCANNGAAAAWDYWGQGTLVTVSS
# VL: QSVLTQPPSLSGAPGQRVTISCTGSSSNLGADYDVQWYQQLPGTAPKLLIFGNNNRPSGVPDRFSGSRSGTSASLAITGLQAEDEANYYCQSYDRSLSGSMVFGGGTKLTVLG
# notes: Human IgG1-3M from phage display; also called mAb-TFPI-26
# B11: TFPI-3 (antibody, human IgG1, kappa, V domains shown)
# VH: not shown
# VL: AIQLTQSPSSLSASVGDRVTITCRASQGISSSLAWYQQKPGKAPKLLIYAASTLQSGVPSRFSGSGSGTDFTLTISSLQPEDFATYYCQQLDSYPLSFGQGTKLEIKR
# notes: Human IgG1-3M from phage display; also called mAb-TFPI-3
# B12: 6B7.c5 (antibody, mouse IgG1, kappa, V domains shown)
# VH: EVLLQQSGPELVKPGSSVKIPCKASGYTFTDYTMDWVKQSHGKSLEWIGDINPSNGGSIYNRKFKGKATLTVDKSSSTAYMELRSLTSEDTAVYYCARMHYNYDGFPYWGQGTLVTVSA
# VL: DIVMTQSHKFMSTSVGDRVSITCKASQDVITAVAWYQQKPGQSPKLLIYWASTRHTGVPVRFTGSGSGTDYTLTIISVQAEDLALYYCQQHYSTPYTFGGGTKLEIKA
# notes: Mouse hybridoma antibody; also called mouse 6b7.c5
# B13: 7A4.D9 (antibody, mouse IgG1, kappa, V domains shown)
# VH: EVQLQQSGPELVKPGASVKMSCKASGYTFTSYVMHWVKQKPGQGLEWIGYLNPYNDGTKYNEKFKGKASLISDKSSSTVYMELSSLTSEDSAVYYCATTLLYAMDYWGQGSSVTVSS
# VL: DIVLTQSPASLAVSLGQRATISCRASKSVSTSGYTYMHWYQQKPGQPPKLLIYLASNLESGVPARFSGSGSGTDFTLNIHPVEEEDAAAYYCQHIRELPFTFGSGTKLEIKA
# notes: Mouse hybridoma antibody; also called mouse 7A4.D9
# B14: 4D8-Vk1.1 × VH1.0 (antibody, human IgG1, kappa, V domains shown)
# VH: B2 VH
# VL: B2 VL with F71Y
# notes: Humanized 4D8 variant
# Biological target: humTFPI K1K2 (human)
# Test: cell-based or functional assay
Binder,FXa EC50 [nM],FXa-FVIIa EC50 [nM]
B1,4.15,3.5

# Biological target: T3, humTFPI K1K2 (human)
# T3 construct: Biotinylated on the AviTag for ELISA; also called Human TFPIα K1K2; humTFPI K1K2-aviHis10
# Test: SPR, antibody ligand, TFPI analyte
# Protocol: The flow cells were activated by injecting a 1:1 mixture of 400 mM 1-Ethyl-3-(3-dimethylaminopropyl) carbodiimide hydrochloride (EDC) and N-hydroxysuccinimide (NHS) for 7 minutes at a flow rate of 10 μl/minute. Anti-human IgG antibody was diluted to 25 μg/ml in 10 mM Sodium Acetate pH 5.0 and injected over all flow cells for 7 minutes at 10 ul/minute. All flow cells were blocked with 1 M Ethanolamine-HCL (ETH) for 7 minutes at 10 μl/minute. Final immobilization level of the capture antibody was approximately 10,000 resonance units (RU). The running buffer for immobilization and kinetics was 10 mM HEPES pH 7.4, 150 mM NaCl, 3 mM EDTA, 0.05% (v/v) Tween-20 (HBS-EP+). […] Flow cell 1 was used as a reference surface. […] At the end of each cycle, the entire anti-IgG surface was regenerated by a 60 second pulse of 3 M MgCl2. Kinetic assays were conducted at 25° C. at a collection rate of 10 Hz on a BIAcore T200 instrument (GE Healthcare). Rate constants and affinities were determined by fitting the data to a 1:1 model in BIAcore T200 Evaluation software version 1.0 (GE).
Binder,Kd [nM],koff [s⁻¹],kon [M⁻¹ s⁻¹]
B2,6.94,0.00047,67700
B3,0.695,0.000165,238000
B4,0.627,9.49e-05,151000
B5,7.19,0.000571,79500
B6,25.4,0.00154,60600
B7,0.823,0.000131,159000
B8,0.832,0.000161,193000
B9,11.1,0.000835,75500

# Biological target: T1, murTFPI K1K2
# Test: SPR, antibody ligand, TFPI analyte
Binder,Kd [nM],koff [s⁻¹],kon [M⁻¹ s⁻¹]
B10,3.68,0.00476,1.29e+06
B11,3.81,0.000824,215000

# Biological target: T3, humTFPI K1K2
# Test: SPR, antibody ligand, TFPI analyte
# Remark: another data set of the same source
Binder,Kd [nM],koff [s⁻¹],kon [M⁻¹ s⁻¹]
B10,5.79,0.00118,205000
B11,27.1,0.0017,62500

# Biological target: T2, rabTFPI K1K2
# Test: ELISA, biotinylated TFPI on streptavidin plate
# Protocol: (§1) Purified anti-TFPI antibodies were diluted to 1 ug/ml in ELISA assay buffer, then serially diluted three-fold to generate an eight-point dilution series. The diluted antibodies were added at a volume of 100 uL per well. The plates were incubated at room temperature for 2 hours. After washing the plates with PBS/0.05% Tween 20, the plates were incubated with a goat anti-mouse IgG-Fc polyclonal antibody conjugated with horseradish peroxidase (Pierce) at 1:10,000 dilution. After 1 hour of incubation, bound antibody was detected with the addition of a TMB substrate solution. Absorbances were read a 450 nm, and the data were analyzed by GraphPad Prism software.
row,Binder,EC50 [nM]
1,B12,0.129
2,B1,0.0976
3,B13,0.0887

# Biological target: T3, humTFPI K1K2
# Test: ELISA, biotinylated TFPI on streptavidin plate
# Protocol: as §1
row,Binder,EC50 [nM]
1,B12,0.121
2,B1,0.0959
3,B13,0.0887

# Biological target: T2, rabTFPI K1K2
# Test: ELISA, biotinylated TFPI on streptavidin plate
# Remark: another data set of the same source
row,Binder,EC50 [nM]
1,B2,0.0785
2,B3,0.0422
3,B4,0.0783
4,B5,0.0556
5,B6,0.0705
6,B7,0.0511
7,B8,0.0788
8,B9,0.0426
9,B14,0.0451

# Biological target: T3, humTFPI K1K2
# Test: ELISA, biotinylated TFPI on streptavidin plate
# Remark: another data set of the same source
row,Binder,EC50 [nM]
1,B2,0.0772
2,B3,0.0758
3,B4,0.059
4,B5,0.0822
5,B6,0.0884
6,B7,0.0651
7,B8,0.0818
8,B9,0.056
9,B14,0.0429

# Biological target: T3, humTFPI K1K2
# Test: cell-based or functional assay
Binder,FXa EC50 [nM],FXa-FVIIa EC50 [nM]
B10,12.8,9.6
B11,208,37.4

# Biological target: T3, humTFPI K1K2
# Test: cell-based or functional assay
# Remark: another data set of the same source
Binder,FXa EC50 [nM],FXa-FVIIa EC50 [nM]
B12,13.9,12.1
B1,5.9,6.67
B13,22.3,9.35

# Biological target: T2, rabTFPI K1K2
# Test: SPR, antibody ligand, TFPI analyte
Binder,Kd [nM],koff [s⁻¹],kon [M⁻¹ s⁻¹]
B12,4.95,0.00564,1.14e+06
B1,0.63,0.00126,2.01e+06
B13,3.55,0.0188,5.3e+06

# Biological target: T3, humTFPI K1K2
# Test: SPR, antibody ligand, TFPI analyte
# Remark: another data set of the same source
Binder,Kd [nM],koff [s⁻¹],kon [M⁻¹ s⁻¹]
B12,6.58,0.00363,552000
B1,1.19,0.00114,958000
B13,6.22,0.00921,1.48e+06
